Patent EP3766512A1 (Universität Zürich, dated 2021)

Assays:
Assay in all cases: Protein G affinity chromatography bead
human IL-12Fc NAH = biological target: T1, human IL-12Fc NAH (human, UniProt P29460 23-328; P29459 23-219)
T1 construct: not shown: linker between p40 and p35 of single chain IL-12 not described; junction or linker between IL-12 and Fc not described

human IL-12Fc NAA = biological target: T2, human IL-12Fc NAA (human, UniProt P29460 23-328; P29459 23-219)
T2 construct: not shown: linker between p40 and p35 of single chain IL-12 not described; junction or linker between IL-12 and Fc not described

human IL-12Fc NAE = biological target: T3, human IL-12Fc NAE (human, UniProt P29460 23-328; P29459 23-219)
T3 construct: not shown: linker between p40 and p35 of single chain IL-12 not described; junction or linker between IL-12 and Fc not described

Measured: binding result

T3 sequence (P29460 other isoform, or with tags, fused parts or gaps): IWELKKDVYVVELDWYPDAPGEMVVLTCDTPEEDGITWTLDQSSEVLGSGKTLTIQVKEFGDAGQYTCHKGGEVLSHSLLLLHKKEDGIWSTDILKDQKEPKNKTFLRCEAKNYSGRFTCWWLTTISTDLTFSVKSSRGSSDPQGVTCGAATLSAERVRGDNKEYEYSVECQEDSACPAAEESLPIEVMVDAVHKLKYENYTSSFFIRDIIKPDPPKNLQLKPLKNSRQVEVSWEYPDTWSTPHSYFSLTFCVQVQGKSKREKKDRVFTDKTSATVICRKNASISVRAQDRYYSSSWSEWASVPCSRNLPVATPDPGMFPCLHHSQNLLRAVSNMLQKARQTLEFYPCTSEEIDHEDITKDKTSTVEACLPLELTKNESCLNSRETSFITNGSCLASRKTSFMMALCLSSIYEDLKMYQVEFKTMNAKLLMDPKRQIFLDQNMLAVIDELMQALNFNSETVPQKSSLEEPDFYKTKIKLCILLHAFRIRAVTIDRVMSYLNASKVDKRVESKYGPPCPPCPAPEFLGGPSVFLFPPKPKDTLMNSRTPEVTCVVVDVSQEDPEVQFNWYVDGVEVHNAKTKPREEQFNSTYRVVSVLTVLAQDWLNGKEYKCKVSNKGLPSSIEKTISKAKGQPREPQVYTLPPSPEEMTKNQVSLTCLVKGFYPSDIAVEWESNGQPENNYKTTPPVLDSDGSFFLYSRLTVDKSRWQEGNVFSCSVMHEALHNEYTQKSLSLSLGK
T1 sequence (P29460 other isoform, or with tags, fused parts or gaps): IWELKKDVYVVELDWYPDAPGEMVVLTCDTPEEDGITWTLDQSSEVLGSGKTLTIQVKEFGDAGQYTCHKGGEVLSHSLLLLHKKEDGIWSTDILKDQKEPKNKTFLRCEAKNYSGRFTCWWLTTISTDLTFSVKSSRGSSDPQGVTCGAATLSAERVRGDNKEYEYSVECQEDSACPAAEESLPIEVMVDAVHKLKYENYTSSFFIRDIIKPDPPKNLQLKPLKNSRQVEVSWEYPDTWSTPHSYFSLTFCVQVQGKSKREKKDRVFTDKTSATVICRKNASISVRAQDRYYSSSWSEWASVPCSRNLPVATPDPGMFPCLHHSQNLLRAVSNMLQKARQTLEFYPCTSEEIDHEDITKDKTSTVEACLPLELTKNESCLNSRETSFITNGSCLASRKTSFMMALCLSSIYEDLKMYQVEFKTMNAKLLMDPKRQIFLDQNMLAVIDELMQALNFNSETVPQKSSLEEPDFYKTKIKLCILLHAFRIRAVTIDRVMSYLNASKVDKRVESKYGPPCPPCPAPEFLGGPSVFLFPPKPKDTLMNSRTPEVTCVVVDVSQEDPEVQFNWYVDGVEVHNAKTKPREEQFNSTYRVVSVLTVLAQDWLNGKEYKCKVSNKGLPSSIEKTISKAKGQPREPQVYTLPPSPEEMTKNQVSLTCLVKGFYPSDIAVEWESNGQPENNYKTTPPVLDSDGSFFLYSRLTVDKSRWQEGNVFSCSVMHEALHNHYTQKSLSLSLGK
T2 sequence (P29460 other isoform, or with tags, fused parts or gaps): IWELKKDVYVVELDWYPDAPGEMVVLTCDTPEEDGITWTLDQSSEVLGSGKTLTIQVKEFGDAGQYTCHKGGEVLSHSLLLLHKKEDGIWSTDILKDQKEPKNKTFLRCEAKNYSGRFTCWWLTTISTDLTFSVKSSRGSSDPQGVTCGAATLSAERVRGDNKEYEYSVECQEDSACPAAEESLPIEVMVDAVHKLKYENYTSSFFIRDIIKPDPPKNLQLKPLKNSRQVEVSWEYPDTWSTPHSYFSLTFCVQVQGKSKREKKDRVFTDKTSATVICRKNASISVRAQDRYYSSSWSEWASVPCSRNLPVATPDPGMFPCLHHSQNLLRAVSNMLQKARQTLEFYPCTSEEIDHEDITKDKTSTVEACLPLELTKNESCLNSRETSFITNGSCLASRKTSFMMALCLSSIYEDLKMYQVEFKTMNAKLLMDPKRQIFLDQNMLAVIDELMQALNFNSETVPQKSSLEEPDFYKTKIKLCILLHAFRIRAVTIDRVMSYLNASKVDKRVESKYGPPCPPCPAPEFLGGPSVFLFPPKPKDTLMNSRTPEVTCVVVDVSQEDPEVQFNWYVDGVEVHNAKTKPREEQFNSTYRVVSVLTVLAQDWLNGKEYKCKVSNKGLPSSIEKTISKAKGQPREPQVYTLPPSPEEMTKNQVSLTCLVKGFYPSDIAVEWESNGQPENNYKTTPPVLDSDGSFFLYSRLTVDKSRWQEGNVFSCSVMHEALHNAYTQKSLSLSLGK

B1: Protein G (chromatography bead) (other, UniProt P19909 303-497, looked up)
chain: TYKLILNGKTLKGETTTEAVDAATAEKVFKQYANDNGVDGEWTYDDATKTFTVTEKPEVIDASELTPAVTTYKLVINGKTLKGETTTEAVDAATAEKVFKQYANDNGVDGEWTYDDATKTFTVTEKPEVIDASELTPAVTTYKLVINGKTLKGETTTKAVDAETAEKAFKQYANDNGVDGVWTYDDATKTFTVTE
no binding: human IL-12Fc NAH | human IL-12Fc NAA | human IL-12Fc NAE
